Assay results from US20250144035A1, “Method of Increasing Epithelial Permeability Using Nanoparticles” (Carnegie Mellon University, priority 2017, published 2025).

Assays:
[1] = tested on: mice; test: Intestinal insulin delivery, blood glucose; type: in vivo
Method: Following ten hours of fasting, mice were orally gavaged with PBS (for control) or nanoparticle suspensions (100 mg/kg unless otherwise specified). Two hours later, their initial blood sugar was measured, and the animals were placed under anesthesia. Their intestines were surgically exposed, and insulin was injected at the predetermined dose (1 unit per kg body weight unless otherwise specified) into the duodenum. The mice were closed and secured with tissue adhesive, then kept under anesthesia as their blood sugar levels were monitored each hour for five hours. […] To determine specific insulin concentrations, blood samples were collected and separated via centrifugation. The serum was subjected to ELISA analysis for human insulin (LifeTechnologies®, Carlsbad, CA) per the instructions of the kit manufacturer.

[2] = Description: Following ten hours of fasting, mice were orally gavaged with PBS (for control) or nanoparticle suspensions (100 mg/kg unless otherwise specified). Two hours later, their initial blood sugar was measured, and the animals were placed under anesthesia. Their intestines were surgically exposed, and insulin was injected at the predetermined dose (1 unit per kg body weight unless otherwise specified) into the duodenum. The mice were closed and secured with tissue adhesive, then kept under anesthesia as their blood sugar levels were monitored each hour for five hours. For comparison to the current standard of insulin delivery, subcutaneous injections were given to additional mice, into the scruff on their necks. To determine specific insulin concentrations, blood samples were collected and separated via centrifugation. The serum was subjected to ELISA analysis for human insulin (LifeTechnologies®, Carlsbad, CA) per the instructions of the kit manufacturer.

insulin
blood glucose response ([1]; 1 U/kg subcutaneous): pronounced, but brief response
blood glucose, response to insulin dose ([1]; increasing intestinal insulin dose, constant particle administration of 100 mg/kg): increased magnitude and duration of hypoglycemia
blood insulin concentration ([2]; intestinal insulin along with nanoparticles): slight elevations in blood insulin that persisted for at least four hours
return of blood insulin to normal levels ([2]; subcutaneous injection): shortly after two hours
time of spike in blood insulin concentration ([2]; subcutaneous injection): ≤ 30 min
